Results on two molecules are retold here after patent US20250297004A1, “NECTIN-4 BINDING AGENTS” (INNATE PHARMA, priority 2022, published 2025).

One assay addresses T1, human Nectin-4 Mutant 7 (human, UniProt Q96NY8 32-510).
T1 construct: Expressed on transfected HEK293T cells; also called S195A/K197T/S199A
T1 chain: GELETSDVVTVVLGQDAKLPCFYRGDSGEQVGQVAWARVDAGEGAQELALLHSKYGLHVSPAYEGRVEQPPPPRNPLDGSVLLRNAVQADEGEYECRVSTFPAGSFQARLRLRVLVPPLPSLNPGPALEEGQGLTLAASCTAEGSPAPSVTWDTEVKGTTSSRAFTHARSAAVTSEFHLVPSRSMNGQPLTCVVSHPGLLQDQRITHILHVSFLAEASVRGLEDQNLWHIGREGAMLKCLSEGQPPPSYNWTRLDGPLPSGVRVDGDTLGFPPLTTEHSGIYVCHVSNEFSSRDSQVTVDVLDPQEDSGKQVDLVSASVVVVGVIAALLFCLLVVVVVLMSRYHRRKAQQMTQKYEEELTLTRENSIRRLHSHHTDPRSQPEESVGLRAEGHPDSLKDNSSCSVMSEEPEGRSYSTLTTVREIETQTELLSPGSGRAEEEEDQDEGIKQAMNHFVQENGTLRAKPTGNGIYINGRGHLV
The experiment in a line: binding to HEK293T cells expressing Nectin-4 mutant.

Assay [1] deals with T2, human Nectin-4 Mutant 7bis (human, UniProt Q96NY8 32-510).
T2 construct: Expressed on transfected HEK293T cells; also called A72P/G73N/K197T/S199A
T2 chain: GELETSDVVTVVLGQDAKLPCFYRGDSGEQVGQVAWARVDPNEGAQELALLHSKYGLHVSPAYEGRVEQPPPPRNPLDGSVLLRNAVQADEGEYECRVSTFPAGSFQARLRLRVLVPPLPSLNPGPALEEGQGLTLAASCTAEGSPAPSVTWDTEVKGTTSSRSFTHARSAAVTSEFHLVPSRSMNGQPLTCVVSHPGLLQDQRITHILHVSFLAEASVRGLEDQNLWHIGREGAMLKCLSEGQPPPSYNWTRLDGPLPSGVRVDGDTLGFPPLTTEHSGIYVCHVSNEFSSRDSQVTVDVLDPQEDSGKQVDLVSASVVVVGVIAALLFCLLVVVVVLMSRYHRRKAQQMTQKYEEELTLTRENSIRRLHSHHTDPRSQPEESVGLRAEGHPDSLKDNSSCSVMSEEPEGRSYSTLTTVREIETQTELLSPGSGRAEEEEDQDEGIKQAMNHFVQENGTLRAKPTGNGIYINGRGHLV
The description is as above.

Assay [2] deals with human Nectin-4 (protein used in the SPR affinity measurements) (human) (UniProt Q96NY8). The assay can be described thus: SPR.
Assay [3] concerns the target T3, mouse Nectin-4 protein expressed on CHO cells (mouse, UniProt Q8R007 32-508).
T3 construct: also called Mouse Nectin-4-V5
T3 sequence: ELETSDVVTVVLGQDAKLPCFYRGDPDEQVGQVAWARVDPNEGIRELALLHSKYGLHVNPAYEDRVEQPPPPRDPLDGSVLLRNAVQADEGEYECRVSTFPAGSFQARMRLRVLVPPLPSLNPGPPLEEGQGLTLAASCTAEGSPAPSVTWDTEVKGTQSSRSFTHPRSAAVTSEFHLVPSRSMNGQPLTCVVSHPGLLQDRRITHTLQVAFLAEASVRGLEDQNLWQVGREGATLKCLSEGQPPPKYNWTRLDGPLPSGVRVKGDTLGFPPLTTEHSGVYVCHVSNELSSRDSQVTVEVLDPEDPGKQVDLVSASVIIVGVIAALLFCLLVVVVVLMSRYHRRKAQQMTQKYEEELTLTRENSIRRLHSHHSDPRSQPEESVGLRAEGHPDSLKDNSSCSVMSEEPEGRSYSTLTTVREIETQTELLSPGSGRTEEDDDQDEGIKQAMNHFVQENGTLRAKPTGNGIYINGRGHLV
The experiment in a line: flow cytometry on CHO cells expressing mouse Nectin-4.

Another assay deals with T4, human Nectin-4 Mutant 1 (human, UniProt Q96NY8 32-510).
T4 construct: Expressed on transfected HEK293T cells; also called S58P/G59D/Q61A/N106D/P107A
T4 chain: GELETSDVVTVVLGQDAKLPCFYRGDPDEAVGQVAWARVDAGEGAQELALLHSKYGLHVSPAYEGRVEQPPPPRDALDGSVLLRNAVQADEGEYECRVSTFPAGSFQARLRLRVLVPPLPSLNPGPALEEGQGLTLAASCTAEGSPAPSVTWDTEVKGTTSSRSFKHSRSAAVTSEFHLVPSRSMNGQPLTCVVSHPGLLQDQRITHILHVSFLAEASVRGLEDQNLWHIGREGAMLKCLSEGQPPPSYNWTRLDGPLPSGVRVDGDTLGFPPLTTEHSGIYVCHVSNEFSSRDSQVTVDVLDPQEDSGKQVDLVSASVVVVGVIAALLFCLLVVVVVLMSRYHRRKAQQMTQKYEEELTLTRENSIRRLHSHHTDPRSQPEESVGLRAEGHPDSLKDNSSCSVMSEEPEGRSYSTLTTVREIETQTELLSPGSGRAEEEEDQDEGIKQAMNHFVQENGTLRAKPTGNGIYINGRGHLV
The assay can be described thus: binding to HEK293T cells expressing Nectin-4 mutant.

B1: N41 (antibody, V domains shown)
VH: QVQLKQSGPGLVQPSQSLSITCTVSGFSLTNYGVHWVRQSPGKGLEWLGVIWSGGSTDYNAAFISRLSISKDTSKSQVFFKMNSLQADDTAIYYCARELIHAMDNWGQGTSVTVSS
VL: DIQMTQSPASLSVSVGETVTITCRASENIYSNLAWYQQKQGNSPQLLVFAATNLADGVPSRFSGSGSGTQYSLKINSLQSEDFGTYYCQHFWGTPTFGGGTKLEIK
Take B1: the binding result (with human Nectin-4 Mutant 7; in assay [1]) was “binds” throughout.

B2: chimeric parental 5E7 antibody (antibody, V domains shown)
VH: QVQLQQPGAELVKPGASVKLSCKASGYIFTSYWMHWVKQRPGQGLEWIGEIDPSDSYTNYNQKFKGKATLTLDKSSSTTYMQLSSLTSEDSAVYYCVRGYGNYGDYWGQGTTLTVSS
VL: DVVMTQAAFSNPVTLGTSASISCRSSKSLLHSNGITYLYWYLQKPGQSPQLLIYQMSNLASGVPDRFSSSGSGTDFTLRISRVEAEDVGVYYCAQNLELPWTFGGGTKLEIKR
notes: Chimeric antibody, murine variable domains with human constant regions; also called ch5E7; CHG1-M-1N4-5E7
Consider B2, for which, in assay [2], the equilibrium dissociation constant (Kd) came to 5.9 nM, the off-rate (koff) was 0.0027 s⁻¹ and the kon was determined as 480000 M⁻¹ s⁻¹. Further, the binding result in assay [3] was “no binding”. Also, the binding result with human Nectin-4 Mutant 1 is listed as “binds”.
